FireProtDB (doi:10.1021/bi00250a042)

B1: Subtilisin-chymotrypsin inhibitor-2A, P01053 (parent)
chain: MSSVEKKPEGVNTGAGDRHNLKTEWPELVGKSVEEAKKVILQDKPEAQIIVLPVGTIVTMEYRIDRVRLFVDKLDNIAQVPRVG

Variants of: B1
Details: Hordeum vulgare; pH 6.3; 25 °C; GdnHCl; Fluorescence; MES 450 mM; reversible: yes; structure 2CI2; whole UniProt chain shown

For T59A, which “ddG of mutation (higher = less stable)” value is on record?
Its value is 0.68 kcal/mol.

What about the denaturant m value of the same variant?
The denaturant m value was 1.89 kcal/mol/M.

And the “denaturant midpoint (higher = more stable)” value?
Its value is 3.63 M.

What about the unfolding free energy of the same variant?
Its unfolding free energy is 6.86 kcal/mol.

What does the source list for T59A E61A?
ddG of mutation (higher = less stable): 0.67 kcal/mol; denaturant m value: 1.94 kcal/mol/M; denaturant midpoint (higher = more stable): 3.54 M; unfolding free energy: 6.87 kcal/mol

What does the source list for T59D?
ddG of mutation (higher = less stable): 0.04 kcal/mol; denaturant m value: 1.87 kcal/mol/M; denaturant midpoint (higher = more stable): 4.01 M; unfolding free energy: 7.5 kcal/mol

Which “ddG of mutation (higher = less stable)” value does the source give for E61A here?
The value was 1.06 kcal/mol.

What about the denaturant m value of the same variant?
Its denaturant m value is 1.78 kcal/mol/M.

What about the “denaturant midpoint (higher = more stable)” value of the same variant?
The value was 3.64 M.

What about the unfolding free energy of the same variant?
Its unfolding free energy is 6.48 kcal/mol.
